In patent US20200048350A1 (INHIBRX BIOSCIENCES, published 2020):

Target: T1, B7H3 (UniProt Q5ZPR3 29-534, limits assumed)
T1 construct: whole, on cells; also called CD276
T1 sequence (looked up): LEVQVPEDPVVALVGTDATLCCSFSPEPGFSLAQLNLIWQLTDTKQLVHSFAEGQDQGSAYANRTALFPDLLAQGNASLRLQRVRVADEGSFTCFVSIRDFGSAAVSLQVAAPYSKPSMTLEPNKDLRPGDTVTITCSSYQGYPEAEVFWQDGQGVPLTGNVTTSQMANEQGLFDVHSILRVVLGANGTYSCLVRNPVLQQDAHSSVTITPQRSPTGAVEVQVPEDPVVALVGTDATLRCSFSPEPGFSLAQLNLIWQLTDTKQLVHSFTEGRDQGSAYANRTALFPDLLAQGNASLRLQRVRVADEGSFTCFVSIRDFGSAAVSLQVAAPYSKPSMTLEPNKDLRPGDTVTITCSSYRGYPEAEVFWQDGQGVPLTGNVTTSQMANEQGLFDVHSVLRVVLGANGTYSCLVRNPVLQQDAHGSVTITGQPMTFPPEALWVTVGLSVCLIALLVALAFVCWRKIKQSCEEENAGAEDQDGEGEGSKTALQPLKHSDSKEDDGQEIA
Assay: flow cytometry on A375 cells

B1: DART-Fc B7H3xCD3 (bispecific antibody)
chain 1: DIQLTQSPSFLSASVGDRVTITCKASQNVDTNVAWYQQKPGKAPKALIYSASYRYSGVPSRFSGSGSGTDFTLTISSLQPEDFATYYCQQYNNYPFTFGQGTKLEIKGGGSGGGGEVQLVESGGGLVQPGGSLRLSCAASGFTFSTYAMNWVRQAPGKGLEWVGRIRSKYNNYATYYADSVKDRFTISRDDSKNSLYLQMNSLKTEDTAVYYCVRHGNFGNSYVSWFAYWGQGTLVTVSSGGCGGGEVAALEKEVAALEKEVAALEKEVAALEKGGGDKTHTCPPCPAPEAAGGPSVFLFPPKPKDTLMISRTPEVTCVVVDVSHEDPEVKFNWYVDGVEVHNAKTKPREEQYNSTYRVVSVLTVLHQDWLNGKEYKCKVSNKALPAPIEKTISKAKGQPREPQVYTLPPSREEMTKNQVSLWCLVKGFYPSDIAVEWESNGQPENNYKTTPPVLDSDGSFFLYSKLTVDKSRWQQGNVFSCSVMHEALHNHYTQKSLSLSPGK
chain 2: QAVVTQEPSLTVSPGGTVTLTCRSSTGAVTTSNYANWVQQKPGQAPRGLIGGTNKRAPWTPARFSGSLLGGKAALTITGAQAEDEADYYCALWYSNLWVFGGGTKLTVLGGGGSGGGGEVQLVESGGGLVQPGGSLRLSCAASGFTFSSFGMHWVRQAPGKGLEWVAYISSDSSAIYYADTVKGRFTISRDNAKNSLYLQMNSLRDEDTAVYYCGRGRENIYYGSRLDYWGQGTTVTVSSGGCGGGKVAALKEKVAALKEKVAALKEKVAALKE
chain 3: not shown
notes: Comparator; also called DART-Fc format B7H3xCD3; B7-H3 x CD3 Bispecific DART-A Diabody
B1: binds.
